Data published in patent publication US20230381229A1.
Changes are numbered by the printed parent chain. In names and notes the source's numbering stands.

B1: variant PD-L1 ECD-Fc I36S, M41K, M97L, K144Q, R195G, E200K, H202Q, L206F (Fc fusion)
chain: FTVTVPKDLYVVEYGSNMTIECKFPVEKQLDLAALSVYWEKEDKNIIQFVHGEEDLKVQHSSYRQRARLLKDQLSLGNAALQITDVKLQDAGVYRCLISYGGADYKRITVKVNAPYNKINQRILVVDPVTSEHELTCQAEGYPQAEVIWTSSDHQVLSGKTTTTNSKREEKLFNVTSTLRINTTTNEIFYCTFRGLDPEKNQTAEFVIPELPLAHPPNER
B2: variant PD-L1 ECD-Fc N17D, M97L, S99G (Fc fusion)
chain: B1 chain with N17D, S36I, K41M, S99G, Q144K, G195R, K200E, Q202H, F206L
B3: variant PD-L1 ECD-Fc I36T, I83T, M97L, K144E, P198T (Fc fusion)
chain: B1 chain with S36T, K41M, I83T, Q144E, G195R, P198T, K200E, Q202H, F206L
B4: variant PD-L1 ECD-Fc I36T, M97L, Q155H, F193S, N201Y (Fc fusion)
chain: B1 chain with S36T, K41M, Q144K, Q155H, F193S, G195R, K200E, N201Y, Q202H, F206L
B5: variant PD-L1 ECD-Fc K57R, S99G, L124S, K144Q (Fc fusion)
chain: B1 chain with S36I, K41M, K57R, L97M, S99G, L124S, G195R, K200E, Q202H, F206L
B6: variant PD-L1 ECD-Fc K57R, S99G, R195G (Fc fusion)
chain: B1 chain with S36I, K41M, K57R, L97M, S99G, Q144K, K200E, Q202H, F206L
B7: variant PD-L2 IgV-Fc H15Q (Fc fusion)
chain: LFTVTVPKELYIIEQGSNVTLECNFDTGSHVNLGAITASLQKVENDTSPHRERATLLEEQLPLGKASFHIPQVQVRDEGQYQCIIIYGVAWDYKYLTLKVKA
B8: variant PD-L2 IgV-Fc I13V, H15Q, T47A, R76G, V89D (Fc fusion)
chain: B7 chain with I13V, T47A, R76G, V89D
B9: variant PD-L2 IgV-Fc H15Q, V89D (Fc fusion)
chain: B7 chain with V89D
B10: variant PD-L2 IgV-Fc G28V, Q72H, R76G, I86T (Fc fusion)
chain: B7 chain with Q15H, G28V, Q72H, R76G, I86T
B11: variant PD-L2 IgV-Fc V89D (Fc fusion)
chain: B7 chain with Q15H, V89D
B12: variant PD-L2 IgV-Fc I13V, H15Q, T37A, E44D, S48C, S67L, Q82R, V89D (Fc fusion)
chain: B7 chain with I13V, T37A, E44D, S48C, S67L, Q82R, V89D
B13: variant PD-L2 IgV-Fc H15Q, T47A (Fc fusion)
chain: B7 chain with T47A
B14: variant PD-L2 IgV-Fc I13V, H15Q, R76G, I85F (Fc fusion)
chain: B7 chain with I13V, R76G, I85F
B15: variant PD-L2 IgV-Fc S67L, I85F (Fc fusion)
chain: B7 chain with Q15H, S67L, I85F
B16: variant PD-L2 IgV-Fc H15Q, E44D, R76G, I85F (Fc fusion)
chain: B7 chain with E44D, R76G, I85F
B17: variant PD-L2 IgV-Fc H15Q, S67L, R76G, I85F (Fc fusion)
chain: B7 chain with S67L, R76G, I85F
B18: variant PD-L2 IgV-Fc I13V, H15Q, T47A, Q82R, V89D (SEQ ID NO 725) (Fc fusion)
chain: B7 chain with I13V, N24D, Q82R, V89D
B19: variant PD-L2 IgV-Fc H15Q, C23S, I86T (Fc fusion)
chain: B7 chain with C23S, I86T
B20: variant PD-L2 IgV-Fc H15Q, N24S, T47A, Q72H, R76G, V89D (Fc fusion)
chain: B7 chain with N24S, T47A, Q72H, R76G, V89D
B21: variant PD-L2 IgV-Fc H15Q, Q82R, V89D (Fc fusion)
chain: B7 chain with Q82R, V89D
B22: variant PD-L2 IgV-Fc N24D (Fc fusion)
chain: B7 chain with Q15H, N24D
B23: variant PD-L2 IgV-Fc E44D, V89D, W91R (Fc fusion)
chain: B7 chain with Q15H, E44D, V89D, W91R
B24: variant PD-L2 IgV-Fc I13V, H15Q, E44V, T47A, Q82R, V89D (Fc fusion)
chain: B7 chain with I13V, E44V, T47A, Q82R, V89D
B25: variant PD-L2 IgV-Fc H15Q, Q72H, Q74R, R76G, I86T (Fc fusion)
chain: B7 chain with Q72H, Q74R, R76G, I86T
B26: variant PD-L2 IgV-Fc E44D (Fc fusion)
chain: B7 chain with Q15H, E44D
B27: variant PD-L2 IgV-Fc S67L, V89D (Fc fusion)
chain: B7 chain with Q15H, S67L, V89D
B28: Wild Type PD-L2 IgV (Fc fusion)
chain: B7 chain with Q15H
B29: variant PD-L2 IgV-Fc H15Q, Q72H, V89D (Fc fusion)
chain: B7 chain with Q72H, V89D
B30: variant PD-L2 IgV-Fc H15Q, T47A, Q72H, R76G, I86T (Fc fusion)
chain: B7 chain with T47A, Q72H, R76G, I86T
B31: variant PD-L2 IgV-Fc Q82R, V89D (Fc fusion)
chain: B7 chain with Q15H, Q82R, V89D
B32: variant PD-L2 IgV-Fc H15Q, K65R (Fc fusion)
chain: B7 chain with K65R
B33: variant PD-L2 IgV-Fc I13V, E44D, Q82R, V89D (Fc fusion)
chain: B7 chain with I13V, Q15H, E44D, Q82R, V89D
B34: WT CD80 IgV/IgC-Fc (Fc fusion)
chain: VIHVTKEVKEVATLSCGHNVSVEELAQTRIYWQKEKKMVLTMMSGDMNIWPEYKNRTIFDITNNLSIVILALRPSDEGTYECVVLKYEKDAFKREHLAEVTLSVKADFPTPSISDFEIPTSNIRRIICSTSGGFPEPHLSWLENGEELNAINTTVSQDPETELYAVSSKLDFNMTTNHSFMCLIKYGHLRVNQTFNWNTTKQEHFPDN
B35: variant PD-L1 ECD-Fc Y10F, M18V, S99G, Q138R, T203A (Fc fusion)
chain: FTVTVPKDLFVVEYGSNVTIECKFPVEKQLDLAALIVYWEMEDKNIIQFVHGEEDLKVQHSSYRQRARLLKDQLSLGNAALQITDVKLQDAGVYRCMIGYGGADYKRITVKVNAPYNKINQRILVVDPVTSEHELTCRAEGYPKAEVIWTSSDHQVLSGKTTTTNSKREEKLFNVTSTLRINTTTNEIFYCTFRRLDPEENHAAELVIPELPLAHPPNER

Columns and labels:
[1] = biological target: PD-1 expressed on cells (human); experiment: flow cytometry, cells expressing PD-1
Sequence of PD-1 expressed on cells (human) (chain, as listed by the source): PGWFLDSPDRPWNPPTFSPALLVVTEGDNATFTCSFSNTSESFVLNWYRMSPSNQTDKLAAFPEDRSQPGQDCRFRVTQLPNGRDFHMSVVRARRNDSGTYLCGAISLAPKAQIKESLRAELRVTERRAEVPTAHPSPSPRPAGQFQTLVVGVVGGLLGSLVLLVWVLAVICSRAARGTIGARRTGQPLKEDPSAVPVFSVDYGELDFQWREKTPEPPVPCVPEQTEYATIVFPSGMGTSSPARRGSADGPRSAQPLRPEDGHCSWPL

[2] = biological target: CD80 expressed on cells (Homo sapiens); experiment: flow cytometry, cells expressing CD80
PD-1-Fc (Homo sapiens) = experiment: ForteBio, PD-1-Fc
Sequence of PD-1-Fc (Homo sapiens) (chain, as listed by the source limits assumed): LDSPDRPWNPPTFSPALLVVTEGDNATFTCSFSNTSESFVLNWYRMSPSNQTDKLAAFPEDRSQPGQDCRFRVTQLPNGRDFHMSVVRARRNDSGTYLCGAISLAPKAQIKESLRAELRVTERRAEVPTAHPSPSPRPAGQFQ

[3] = biological target: PD-1 expressed on cells (human); experiment: flow cytometry, Jurkat/PD-1 cells
CD28 (human) = experiment: flow cytometry on HEK293 cells transfected with CD28

Row | Fortebio binding to PD-1-Fc Response Units (Response Units) (PD-1-Fc (Homo sapiens)) | Fold increase over wildtype PD-L2 IgV-Fc [3] | MFI at 50 nM [3] | other results | Binder
1 |  |  |  | MFI at 20 nM [1]: 3500 | B1
2 |  |  |  | Fold Change Compared to WT PD-L1 [2]: 547; Fold Change Compared to WT PD-L1 [1]: 3.2 | B2
3 |  |  |  | MFI at 20 nM [1]: 62 | B3
4 |  |  |  | Fold Change Compared to WT PD-L1 [2]: 9.3; MFI at 20 nM [2]: 1250; Fold Change Compared to WT PD-L1 [1]: 0; MFI at 20 nM [1]: 69 | B4
5 |  |  |  | Fold Change Compared to WT PD-L1 [2]: 105; Fold Change Compared to WT PD-L1 [1]: 0.7 | B5
6 |  |  |  | Fold Change Compared to WT PD-L1 [2]: 81.8; MFI at 20 nM [2]: 11000; Fold Change Compared to WT PD-L1 [1]: 0.8 | B6
7 | 0.007 | 1.63 | 16000 |  | B7
8 | 1.6 |  |  |  | B8
9 | 0.31 | 1.8 | 17700 |  | B9
10 | 0.003 | 0.57 | 5560 |  | B10
11 | 0.005 | 0.34 | 3360 |  | B11
12 | 1.25 |  |  |  | B12
13 | 0.016 | 2.7 | 26600 |  | B13
14 | -0.04 | 0.48 | 4740 |  | B14
15 | -0.005 | 0.05 | 529 |  | B15
16 |  |  | 2880 |  | B16
17 | 0.025 | 0.29 | 2870 |  | B17
18 | 1.45 | 6.2 | 61000 |  | B18

Row | Fortebio binding to PD-1-Fc Response Units (Response Units) (PD-1-Fc (Homo sapiens)) | Fold increase over wildtype PD-L2 IgV-Fc [3] | MFI at 50 nM [3] | other results | Binder
19 |  |  | 830 |  | B19
20 | 0.4 |  |  |  | B20
21 | 1.2 |  |  |  | B21
22 | -0.039 | 0.14 | 1410 |  | B22
23 |  |  | 614 |  | B23
24 |  |  | 61000 |  | B24
25 |  |  | 4050 |  | B25
26 | -0.006 | 0.3 | 2930 |  | B26
27 |  |  | 16000 |  | B27
28 |  |  | 9840 |  | B28
29 |  |  | 12600 |  | B29
30 | 0.512 | 3.26 | 32100 |  | B30
31 |  |  | 45000 |  | B31
32 | -0.001 | 1.37 | 13500 |  | B32
33 | 1.28 | 4.59 | 45200 |  | B33
34 |  |  |  | MFI at 66.6 nM (CD28 (human)): 3070 | B34
35 |  |  |  | Fold Change Compared to WT PD-L1 [2]: 3.1; MFI at 20 nM [2]: 412; Fold Change Compared to WT PD-L1 [1]: 0; MFI at 20 nM [1]: 70 | B35
